The record followed here is patent publication US20230416365A1 (Hoffmann-La Roche, published 2023).

Numbering of substitutions follows the chain as printed.

B1: P001.177 Fab (Fab, V domains shown)
VH: EVQLLESGGGLVQPGGSLRLSCAASGFYFTDYYMNWVRQAPGKGLEWLGFISNKANAYTTEYSASVKGRFTISRDKSKNTLYLQMNSLRAEDTATYYCTRDRGLRFYFDYWGQGTTVTVSS
VL: EIVLTQSPATLSLSPGERATLSCRASSSVTYIHWYQQKPGQAPRSWIYATSNLASGIPARFSGSGSGTDFTLTISSLEPEDFAVYYCQHWSSKPPTFGQGTKLEIK
notes: Fab from E. coli
B2: P006.038 Fab (Fab, V domains shown)
VH: B1 VH with Y28T, S52G, L104I, Y107G
VL: B1 VL with K93V
notes: Fab from E. coli
B3: P005.102 Fab (Fab, V domains shown)
VH: B1 VH with Y28T, S52G, L104I, Y107Q
VL: B1 VL with P94S
notes: Fab from E. coli
B4: P005.097 Fab (Fab, V domains shown)
VH: B1 VH with Y28T, S52G, Y107S
VL: B1 VL with K93Q
notes: Fab from E. coli
B5: P002.139 Fab (Fab, V domains shown)
VH: B1 VH with Y33A, F50V
VL: B1 VL with R24H
notes: Fab from E. coli
B6: P005.103 Fab (Fab, V domains shown)
VH: B1 VH with Y28T, S52G, L104I
VL: B1 VL with K93I, P94S
notes: Fab from E. coli
B7: FAP (4B9) - CD28 (CD28(SA)_Variant 16) 1+1 (bispecific antibody, human IgG1, kappa, L234A L235A)
heavy 1: EIVLTQSPGTLSLSPGERATLSCRASQSVTSSYLAWYQQKPGQAPRLLINVGSRRATGIPDRFSGSGSGTDFTLTISRLEPEDFAVYYCQQGIMLPPTFGQGTKVEIKSSASTKGPSVFPLAPSSKSTSGGTAALGCLVKDYFPEPVTVSWNSGALTSGVHTFPAVLQSSGLYSLSSVVTVPSSSLGTQTYICNVNHKPSNTKVDKKVEPKSCDKTHTCPPCPAPEAAGGPSVFLFPPKPKDTLMISRTPEVTCVVVDVSHEDPEVKFNWYVDGVEVHNAKTKPREEQYNSTYRVVSVLTVLHQDWLNGKEYKCKVSNKALGAPIEKTISKAKGQPREPQVCTLPPSRDELTKNQVSLSCAVKGFYPSDIAVEWESNGQPENNYKTTPPVLDSDGSFFLVSKLTVDKSRWQQGNVFSCSVMHEALHNHYTQKSLSLSP
light 1: EVQLLESGGGLVQPGGSLRLSCAASGFTFSSYAMSWVRQAPGKGLEWVSAIIGSGASTYYADSVKGRFTISRDNSKNTLYLQMNSLRAEDTAVYYCAKGWFGGFNYWGQGTLVTVSSASVAAPSVFIFPPSDEQLKSGTASVVCLLNNFYPREAKVQWKVDNALQSGNSQESVTEQDSKDSTYSLSSTLTLSKADYEKHKVYACEVTHQGLSSPVTKSFNRGEC
heavy 2: not shown
light 2: not shown
notes: huIgG1 PG-LALA CrossFab 1+1; also called P1AE3135
B8: FAP (4B9) - CD28 (CD28(SA)_Variant 12) 1+1 (bispecific antibody, human IgG1, kappa, L234A L235A)
heavy 1: B7 heavy 1
light 1: B7 light 1
heavy 2: not shown
light 2: DIQMTQSPSSLSASVGDRVTITCRASQNIYVWLNWYQQKPGKAPKLLIYKASNLYSGVPSRFSGSRSGTDFTLTISSLQPEDFATYYCQQGQTYPYTFGQGTKLEIKRTVAAPSVFIFPPSDRKLKSGTASVVCLLNNFYPREAKVQWKVDNALQSGNSQESVTEQDSKDSTYSLSSTLTLSKADYEKHKVYACEVTHQGLSSPVTKSFNRGEC
notes: huIgG1 PG-LALA CrossFab 1+1; also called P1AE3133
B9: FAP (4B9) - CD28 (CD28(SA)_Variant 15) 1+1 (bispecific antibody, human IgG1, kappa, L234A L235A)
heavy 1: B7 heavy 1
light 1: B7 light 1
heavy 2: not shown
light 2: not shown
notes: huIgG1 PG-LALA CrossFab 1+1; also called P1AE3134
B10: FAP (4B9) - CD28 (CD28(SA)_Variant 19) 1+1 (bispecific antibody, human IgG1, kappa, L234A L235A)
heavy 1: B7 heavy 1
light 1: B7 light 1
heavy 2: not shown
light 2: not shown
notes: huIgG1 PG-LALA CrossFab 1+1; also called P1AE3137
B11: FAP (4B9) - CD28 (CD28(SA)_Variant 23) 1+1 (bispecific antibody, human IgG1, kappa, L234A L235A)
heavy 1: B7 heavy 1
light 1: B7 light 1
heavy 2: not shown
light 2: not shown
notes: huIgG1 PG-LALA CrossFab 1+1; also called P1AE3138
B12: FAP (4B9) - CD28 (CD28(SA)_Variant 17) 1+1 (bispecific antibody, human IgG1, kappa, L234A L235A)
heavy 1: B7 heavy 1
light 1: B7 light 1
heavy 2: not shown
light 2: not shown
notes: huIgG1 PG-LALA CrossFab 1+1; also called P1AE3136
B13: FAP (4B9)-CD28 (CD28(SA)_Variant 8) 1+1 (bispecific antibody, human IgG1, kappa, L234A L235A)
heavy 1: B7 heavy 1
light 1: B7 light 1
heavy 2: not shown
light 2: not shown
notes: huIgG1 PG-LALA CrossFab 1+1; also called P1AE3131
B14: FAP (4B9) - CD28 (CD28(SA)_Variant 11) 1+1 (bispecific antibody, human IgG1, kappa, L234A L235A)
heavy 1: B7 heavy 1
light 1: B7 light 1
heavy 2: not shown
light 2: not shown
notes: huIgG1 PG-LALA CrossFab 1+1; also called P1AE3132

In one assay the target is T1, N(A2B2)A-avi-His (biotinylated at the avi tag).
T1 construct: also called biotinylated N(A2B2)A-avi-His
T1 chain: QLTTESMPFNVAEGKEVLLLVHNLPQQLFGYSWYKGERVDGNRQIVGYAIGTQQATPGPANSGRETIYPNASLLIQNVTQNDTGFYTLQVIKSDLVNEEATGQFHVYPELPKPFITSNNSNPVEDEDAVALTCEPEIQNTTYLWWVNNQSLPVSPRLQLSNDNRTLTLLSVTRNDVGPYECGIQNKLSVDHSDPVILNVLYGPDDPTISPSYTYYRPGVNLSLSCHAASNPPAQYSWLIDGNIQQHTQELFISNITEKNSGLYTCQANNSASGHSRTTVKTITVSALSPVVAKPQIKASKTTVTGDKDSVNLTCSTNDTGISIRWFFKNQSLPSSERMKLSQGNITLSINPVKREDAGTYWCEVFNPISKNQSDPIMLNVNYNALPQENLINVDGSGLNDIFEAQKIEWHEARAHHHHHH
In words: SPR, ProteOn, antigen on NLC chip, purified Fab as analyte. Background: In SPR one partner is held on a chip, and binding of the other changes the refractive index at the surface.
In the case of B1, the Kd (in general, the equilibrium constant for the complex coming apart) turned out to be 0.29 nM; the koff (as a rule, a measure of how fast the partners let go of each other) is 7.85e-05 s⁻¹; the kon (as a rule, the rate constant with which the complex forms) is 267000 M⁻¹ s⁻¹.
B2 returned a Kd of 0.25 nM, a dissociation rate constant (koff) of 5.78e-05 s⁻¹ and a kon of 225000 M⁻¹ s⁻¹.
B3 came in with a dissociation constant Kd of 0.29 nM, a koff of 3.92e-05 s⁻¹ and a kon of 134000 M⁻¹ s⁻¹.
As for B4, the dissociation constant (Kd) came out at 0.91 nM, the koff is 8.54e-05 s⁻¹ and the kon was found to be 94000 M⁻¹ s⁻¹.
The like results for B5 were, in that order, 0.63 nM, 6.53e-05 s⁻¹ and 105000 M⁻¹ s⁻¹.
In turn, B6 showed a dissociation constant (Kd) of 0.5 nM, a koff of 4.99e-05 s⁻¹ and a kon of 100000 M⁻¹ s⁻¹.

For the next assay, the target named is T2, biotinylated huCD28-Fc (dimeric CD28-Fc construct with a monovalent biotinylated avi-tag) (human, UniProt P10747 19-152, biotinylated at the C-terminal avi tag).
T2 construct: not shown: hum IgG1 Fc fragment with hole and PG-LALA mutations; hum IgG1 Fc fragment with knob and PG-LALA mutations
As to the kind of experiment: SPR, ProteOn XPR36, huCD28-Fc on NLC chip, bispecific as analyte.
Molecule B7 showed a Kd of 5.3 nM, a dissociation rate constant (koff) of 0.000994 s⁻¹ and a kon of 187000 M⁻¹ s⁻¹.
Turning to B8, the Kd turned out to be 1 nM, the off-rate (koff) was determined as 0.000267 s⁻¹ and the on-rate (kon) stood at 261000 M⁻¹ s⁻¹.
For B9 the same measures were 7.1 nM, 0.00184 s⁻¹ and 259000 M⁻¹ s⁻¹.
For B10 the same measures were 1.1 nM, 0.000304 s⁻¹ and 280000 M⁻¹ s⁻¹.
The like results for B11 were, in that order, 16.3 nM, 0.00342 s⁻¹ and 211000 M⁻¹ s⁻¹.
B12 yielded a Kd of 3.7 nM, a dissociation rate constant (koff) of 0.00125 s⁻¹ and a kon of 338000 M⁻¹ s⁻¹.
B13 showed a dissociation constant (Kd) of 23.8 nM, an off-rate constant (koff) of 0.00521 s⁻¹ and an association rate constant (kon) of 219000 M⁻¹ s⁻¹.
For B14 the same measures were 12.5 nM, 0.00287 s⁻¹ and 230000 M⁻¹ s⁻¹.

For a further assay, the target named is T3, human CD28 on CHO cells (parental cell line CHO-k1 ATCC #CCL-61, modified to stably overexpress human CD28) (human, UniProt P10747 19-220).
T3 construct: also called hu CD28; CHO-hCD28
In words: binding to CHO cells expressing human CD28 (by the table's title).
With B7, the Kd amounted to 5.3 nM.
In the case of B8, the Kd is 1 nM.
For the molecule B9, the Kd was determined as 7.1 nM.
As for B10, the dissociation constant Kd was determined as 1.1 nM.
B11: the equilibrium dissociation constant (Kd) turned out to be 16.3 nM.
On the same count and under the same terms, then B12, with 3.7 nM.
The same measure, in the same setting: then B13, with 23.8 nM.
On to B14, for which the equilibrium dissociation constant (Kd) came out at 12.5 nM.

For the next assay, the target named is T1, N(A2B2)A-avi-His. In words: SPR off-rate, ProteOn, antigen on NLC chip, Fab in bacterial supernatant.
B1: the dissociation rate constant (koff) came out at 9.81e-05 s⁻¹.
The molecule B2 returned an off-rate (koff) of 7.41e-05 s⁻¹.
On the same count and under the same terms, with B3 the figure was 4.24e-05 s⁻¹.
For the molecule B4, the dissociation rate constant (koff) is 8.87e-05 s⁻¹.
Consider B5, for which the koff was found to be 6.47e-05 s⁻¹.
Same read-out and setting: then B6, with 5.37e-05 s⁻¹.

The next assay has as its target T4, NA(B2)A-avi-His (biotinylated at the avi tag).
T4 chain: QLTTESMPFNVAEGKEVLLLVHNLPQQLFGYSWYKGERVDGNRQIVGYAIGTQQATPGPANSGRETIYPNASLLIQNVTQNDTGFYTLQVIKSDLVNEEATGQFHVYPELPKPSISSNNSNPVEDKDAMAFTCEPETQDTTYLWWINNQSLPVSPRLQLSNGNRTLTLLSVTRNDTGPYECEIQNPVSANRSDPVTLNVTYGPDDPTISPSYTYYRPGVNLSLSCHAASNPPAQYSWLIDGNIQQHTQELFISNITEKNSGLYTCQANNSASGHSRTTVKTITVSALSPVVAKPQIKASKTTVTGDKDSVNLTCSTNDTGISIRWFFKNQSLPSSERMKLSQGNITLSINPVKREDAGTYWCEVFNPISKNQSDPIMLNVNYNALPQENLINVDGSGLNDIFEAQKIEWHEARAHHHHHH
As to the kind of experiment: SPR, ProteOn, 2000 RU NA(B2)A-avi-His on NLC chip, Fab in bacterial supernatant.
Take B1: the binding result was “no binding”.
Same read-out and setting: with B2 the entry was “no binding”; with B3, “no binding”; with B4, “no binding”.
With B5, the binding result was “no binding”.
In the case of B6, the binding result is listed as “no binding”.

Another assay deals with T5, human FAP on 3T3-huFAP cells (clone 19) (human, UniProt Q12884 1-760). In words: flow cytometry on 3T3-huFAP cells, FAP-CD28 1+1 constructs, MFI (PE).
As to B7, the binding result was “binds”.
Regarding B8, the binding result is “binds”.
For the molecule B9, the binding result is reported as “binds”.
B12: the binding result is given as “binds”.
For B13, the binding result is given as “binds”.
The same measure, in the same setting: then B14, with “binds”.

Another assay concerns the target T5, human FAP on 3T3-huFAP cells (clone 19). The description is as above. The source holds these as a separate data set.
B10: the binding result is listed as “binds”.
Consider B11, for which the binding result is on record as “binds”.
